Laboratory results from US20220251595A1, “ENGINEERED ATRLP23 PATTERN RECOGNITION RECEPTORS AND METHODS OF USE” (priority 2019, published 2022).

Tested on: corn protoplasts
Test: Calcium burst in transiently transfected corn protoplasts, R-GECO1.2 fluorescence reporter
Assay type: cell-based, Zea mays
Conditions: 1 μM PpNLP20; for Ca^2+ increase in response to PpNLP20 treatment (R-GECO1.2 fluorescence): transient expression in corn protoplasts
Text: Following ligand (also known as elicitor) binding, PRRs are activated and induce a transient increase of cytosolic Ca^2+ concentration as part of a PTI response. […] In a high-throughput method, the kinetics of PRR-dependent transient variation of cytosolic Ca^2+ concentration can be measured with a fluorimeter or luminometer and in microplate formats of 96 or 384 wells.
Fluorescence was monitored using a fluorimeter equipped with a 100 Hz xenon flash lamp with excitation at 556 nm and emission measured at 585 nm for 100 ms, every 22.6 seconds for 42 minutes.
All of the AtRLP23 constructs have an operably linked 2×35S+Ω promoter construct (SEQ ID NO: 72) and an operably linked rbcS terminator (SEQ ID NO: 73)
Fluorescence was monitored using a fluorimeter equipped with a 100 Hz xenon flash lamp with excitation at 556 nm and emission measured at 585 nm for 30 ms, every 20.2 seconds for 40 minutes. For each fluorescence measurement, the transient change in R-GECO1.2 fluorescence (ΔF) are calculated from background corrected intensity values as (F-Fo), where F represents the average fluorescence intensity of the a batch of protoplasts treated with elicitor, and Fo represents the average fluorescence intensity of the same batch of protoplasts treated with a control solution that lacks the elicitor but is otherwise identical or essentially identical in composition to the solution comprising the elicitor.

B1: AtRLP23-AtBAK1-3×FLAG: AtRLP23 apoplastic and eJM domains, AtBAK1 TM and cytoplasmic domains, 3×FLAG; SEQ ID NO: 25, 26 (protein)
chain: MSKALLHLHFLSLFLLCCVCHSSIFTLNFHFTGIVACRPHQIQAFTKFTNEFDTRGCNNSDTFNGVWCDNSTGAVAVLQLRKCLSGTLKSNSSLFGFHQLRYVDLQNNNLTSSSLPSGFGNLKRLEGLFLSSNGFLGQVPSSFSNLTMLAQLDLSYNKLTGSFPLVRGLRKLIVLDLSYNHFSGTLNPNSSLFELHQLRYLNLAFNNFSSSLPSKFGNLHRLENLILSSNGFSGQVPSTISNLTRLTKLYLDQNKLTSSFPLVQNLTNLYELDLSYNKFFGVIPSSLLTLPFLAHLALRENNLAGSVEVSNSSTSSRLEIMYLGSNHFEGQILEPISKLINLKHLDLSFLNTSYPIDLKLFSSLKSLRSLDLSGNSISSASLSSDSYIPLTLEMLTLRHCDINEFPNILKTLKELVYIDISNNRMKGKIPEWLWSLPLLQSVTLGNNYFTGFQGSAEILVNSSVLLLYLDSNNFEGALPDLPLSIKGFGVASNSFTSEIPLSICNRSSLAAIDLSYNNFTGPIPPCLRNLELVYLRNNNLEGSIPDALCDGASLRTLDVSHNRLTGKLPRSFVNCSSLKFLSVINNRIEDTFPFWLKALPNLQVLTLRSNRFYGPISPPHQGPLGFPELRIFEISDNKFTGSLPPNYFVNWKASSRTMNQDGGLYMVYEEKLFDEGGYGYTDALDLQYKGLHMEQAKALTSYAAIDFSGNRLEGQIPESIGLLKALIAVNISNNAFTGHIPLSMANLENLESLDMSRNQLSGTIPNGLGSISFLAYINVSHNQLTGEIPQGTQITGQSKSSFEGNAGLCGLPLKESCFGTGAPPMYHQKQEDKEEEEEEEEEEEEVLNGRITGAIAGGVAAGAALLFAVPAIALAWWRRKKPQDHFFDVPAEEDPEVHLGQLKRFSLRELQVASDNFSNKNILGRGGFGKVYKGRLADGTLVAVKRLKEERTQGGELQFQTEVEMISMAVHRNLLRLRGFCMTPTERLLVYPYMANGSVASCLRERPESQPPLDWPKRQRIALGSARGLAYLHDHCDPKIIHRDVKAANILLDEEFEAVVGDFGLAKLMDYKDTHVTTAVRGTIGHIAPEYLSTGKSSEKTDVFGYGVMLLELITGQRAFDLARLANDDDVMLLDWVKGLLKEKKLEALVDVDLQGNYKDEEVEQLIQVALLCTQSSPMERPKMSEVVRMLEGDGLAERWEEWQKEEMFRQDFNYPTHHPAVSGWIIGDSTSQIENEYPSGPRSDYKDHDGDYKDHDLDAAAADYKDDDDK
modifications: Fusion protein
In the case of B1, the “responsiveness to PpNLP20 treatment compared to AtRLP23-3×FLAG (total transient increase of fluorescence)” value (Example 3, FIG. 4, 40 minutes, 384-well) is reported as “reduced responsiveness”.

B2: AtRLP23-3×FLAG: AtRLP23 (amino acids 1-890) linked to the 3×FLAG peptide; SEQ ID NO: 13 (nucleotide), 14 (protein) (protein)
chain: MSKALLHLHFLSLFLLCCVCHSSIFTLNFHFTGIVACRPHQIQAFTKFTNEFDTRGCNNSDTFNGVWCDNSTGAVAVLQLRKCLSGTLKSNSSLFGFHQLRYVDLQNNNLTSSSLPSGFGNLKRLEGLFLSSNGFLGQVPSSFSNLTMLAQLDLSYNKLTGSFPLVRGLRKLIVLDLSYNHFSGTLNPNSSLFELHQLRYLNLAFNNFSSSLPSKFGNLHRLENLILSSNGFSGQVPSTISNLTRLTKLYLDQNKLTSSFPLVQNLTNLYELDLSYNKFFGVIPSSLLTLPFLAHLALRENNLAGSVEVSNSSTSSRLEIMYLGSNHFEGQILEPISKLINLKHLDLSFLNTSYPIDLKLFSSLKSLRSLDLSGNSISSASLSSDSYIPLTLEMLTLRHCDINEFPNILKTLKELVYIDISNNRMKGKIPEWLWSLPLLQSVTLGNNYFTGFQGSAEILVNSSVLLLYLDSNNFEGALPDLPLSIKGFGVASNSFTSEIPLSICNRSSLAAIDLSYNNFTGPIPPCLRNLELVYLRNNNLEGSIPDALCDGASLRTLDVSHNRLTGKLPRSFVNCSSLKFLSVINNRIEDTFPFWLKALPNLQVLTLRSNRFYGPISPPHQGPLGFPELRIFEISDNKFTGSLPPNYFVNWKASSRTMNQDGGLYMVYEEKLFDEGGYGYTDALDLQYKGLHMEQAKALTSYAAIDFSGNRLEGQIPESIGLLKALIAVNISNNAFTGHIPLSMANLENLESLDMSRNQLSGTIPNGLGSISFLAYINVSHNQLTGEIPQGTQITGQSKSSFEGNAGLCGLPLKESCFGTGAPPMYHQKQEDKEEEEEEEEEEEEVLNGRAVAIGYGSGLLLGLAIAQVIASYKPEWLVKIIGLNKRRKRSDYKDHDGDYKDHDLDAAAADYKDDDDK
modifications: Fusion protein
B2 was tested, and the “Ca^2+ increase in response to PpNLP20 treatment (R-GECO1.2 fluorescence)” value (“Ca^2+ increase in response” for short) was “significant Ca^2+ increase”.

B3: AtRLP23-eJM(EEEE/ADQ−)-3×FLAG (protein)
chain: SIFTLNFHFTGIVACRPHQIQAFTKFTNEFDTRGCNNSDTFNGVWCDNSTGAVAVLQLRKCLSGTLKSNSSLFGFHQLRYVDLQNNNLTSSSLPSGFGNLKRLEGLFLSSNGFLGQVPSSFSNLTMLAQLDLSYNKLTGSFPLVRGLRKLIVLDLSYNHFSGTLNPNSSLFELHQLRYLNLAFNNFSSSLPSKFGNLHRLENLILSSNGFSGQVPSTISNLTRLTKLYLDQNKLTSSFPLVQNLTNLYELDLSYNKFFGVIPSSLLTLPFLAHLALRENNLAGSVEVSNSSTSSRLEIMYLGSNHFEGQILEPISKLINLKHLDLSFLNTSYPIDLKLFSSLKSLRSLDLSGNSISSASLSSDSYIPLTLEMLTLRHCDINEFPNILKTLKELVYIDISNNRMKGKIPEWLWSLPLLQSVTLGNNYFTGFQGSAEILVNSSVLLLYLDSNNFEGALPDLPLSIKGFGVASNSFTSEIPLSICNRSSLAAIDLSYNNFTGPIPPCLRNLELVYLRNNNLEGSIPDALCDGASLRTLDVSHNRLTGKLPRSFVNCSSLKFLSVINNRIEDTFPFWLKALPNLQVLTLRSNRFYGPISPPHQGPLGFPELRIFEISDNKFTGSLPPNYFVNWKASSRTMNQDGGLYMVYEEKLFDEGGYGYTDALDLQYKGLHMEQAKALTSYAAIDFSGNRLEGQIPESIGLLKALIAVNISNNAFTGHIPLSMANLENLESLDMSRNQLSGTIPNGLGSISFLAYINVSHNQLTGEIPQGTQITGQSKSSFEGNAGLCGLPLKESCFGTGAPPMYHQKQEDKEEEEAEEDEQEVLNGRAVAIGYGSGLLLGLAIAQVIASYKPEWLVKIIGLNKRRKRSDYKDHDGDYKDHDLDAAAADYKDDDDK
With B3 the “Ca^2+ increase in response” value was “Ca^2+ increase”.

B4: AtRLP23-eJMAtRLP1-3×FLAG: AtRLP23 with the AtRLP1 eJM domain, 3×FLAG; SEQ ID NO: 49, 50 (protein)
chain: MSKALLHLHFLSLFLLCCVCHSSIFTLNFHFTGIVACRPHQIQAFTKFTNEFDTRGCNNSDTFNGVWCDNSTGAVAVLQLRKCLSGTLKSNSSLFGFHQLRYVDLQNNNLTSSSLPSGFGNLKRLEGLFLSSNGFLGQVPSSFSNLTMLAQLDLSYNKLTGSFPLVRGLRKLIVLDLSYNHFSGTLNPNSSLFELHQLRYLNLAFNNFSSSLPSKFGNLHRLENLILSSNGFSGQVPSTISNLTRLTKLYLDQNKLTSSFPLVQNLTNLYELDLSYNKFFGVIPSSLLTLPFLAHLALRENNLAGSVEVSNSSTSSRLEIMYLGSNHFEGQILEPISKLINLKHLDLSFLNTSYPIDLKLFSSLKSLRSLDLSGNSISSASLSSDSYIPLTLEMLTLRHCDINEFPNILKTLKELVYIDISNNRMKGKIPEWLWSLPLLQSVTLGNNYFTGFQGSAEILVNSSVLLLYLDSNNFEGALPDLPLSIKGFGVASNSFTSEIPLSICNRSSLAAIDLSYNNFTGPIPPCLRNLELVYLRNNNLEGSIPDALCDGASLRTLDVSHNRLTGKLPRSFVNCSSLKFLSVINNRIEDTFPFWLKALPNLQVLTLRSNRFYGPISPPHQGPLGFPELRIFEISDNKFTGSLPPNYFVNWKASSRTMNQDGGLYMVYEEKLFDEGGYGYTDALDLQYKGLHMEQAKALTSYAAIDFSGNRLEGQIPESIGLLKALIAVNISNNAFTGHIPLSMANLENLESLDMSRNQLSGTIPNGLGSISFLAYINVSHNQLTGEIPQGTQITGQSKSSFEGNAGLCGLPLKESCFGTGAPPMYHQKQEDTHAKEEENEEEGNVIDAVAIGYGSGLLLGLAIAQVIASYKPEWLVKIIGLNKRRKRSDYKDHDGDYKDHDLDAAAADYKDDDDK
modifications: Fusion protein
In the case of B4, the “Ca^2+ increase in response” value is reported as “Ca^2+ increase”.

B5: AtRLP23-eJMVe1-3×FLAG: AtRLP23 with the SlVe1 eJM domain, 3×FLAG; SEQ ID NO: 53, 54 (protein)
chain: MSKALLHLHFLSLFLLCCVCHSSIFTLNFHFTGIVACRPHQIQAFTKFTNEFDTRGCNNSDTFNGVWCDNSTGAVAVLQLRKCLSGTLKSNSSLFGFHQLRYVDLQNNNLTSSSLPSGFGNLKRLEGLFLSSNGFLGQVPSSFSNLTMLAQLDLSYNKLTGSFPLVRGLRKLIVLDLSYNHFSGTLNPNSSLFELHQLRYLNLAFNNFSSSLPSKFGNLHRLENLILSSNGFSGQVPSTISNLTRLTKLYLDQNKLTSSFPLVQNLTNLYELDLSYNKFFGVIPSSLLTLPFLAHLALRENNLAGSVEVSNSSTSSRLEIMYLGSNHFEGQILEPISKLINLKHLDLSFLNTSYPIDLKLFSSLKSLRSLDLSGNSISSASLSSDSYIPLTLEMLTLRHCDINEFPNILKTLKELVYIDISNNRMKGKIPEWLWSLPLLQSVTLGNNYFTGFQGSAEILVNSSVLLLYLDSNNFEGALPDLPLSIKGFGVASNSFTSEIPLSICNRSSLAAIDLSYNNFTGPIPPCLRNLELVYLRNNNLEGSIPDALCDGASLRTLDVSHNRLTGKLPRSFVNCSSLKFLSVINNRIEDTFPFWLKALPNLQVLTLRSNRFYGPISPPHQGPLGFPELRIFEISDNKFTGSLPPNYFVNWKASSRTMNQDGGLYMVYEEKLFDEGGYGYTDALDLQYKGLHMEQAKALTSYAAIDFSGNRLEGQIPESIGLLKALIAVNISNNAFTGHIPLSMANLENLESLDMSRNQLSGTIPNGLGSISFLAYINVSHNQLTGEIPQGTQITGQSKSSFEGNAGLCGLPLKESCFGTGAPPMYHQKQEDESLPPPTPLPDSDDEWEAVAIGYGSGLLLGLAIAQVIASYKPEWLVKIIGLNKRRKRSDYKDHDGDYKDHDLDAAAADYKDDDDK
modifications: Fusion protein
For B5, the “Ca^2+ increase in response” value was “Ca^2+ increase”.
